The values that follow are results of earlier work, collected in patent US20110212858A1, “SYNTHETIC POLY D/L LYSINE FOR CONTROL OF DIRECTION AND RATE OF NEURITE GROWTH AND REGENERATION” (CHILDRENS HOSPITAL LOS ANGELES, priority 2008, published 2011).

For the series the following is noted: requires storage at −80° C.

As to laminin, the shelf life entry is “limited shelf life”.
